System: peptide library, one residue held at a place counted from the S/T acceptor
Assay: relative phosphorylation of the sub-library (ratio to the mean residue at this position); higher = residue favoured
Settings: human
Summary of the method: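 Purified recombinant kinases (human or orthologue constructs) were incubated in 384-well plates with biotinylated degenerate peptide sub-libraries, each fixing one residue at one position around a central Ser/Thr. Peptides were at 50 μM, with 50 μM ATP spiked with γ-32P-ATP, for 90 min under kinase-specific conditions. Spots on streptavidin membranes were phosphorimaged and quantified by densitometry. Relative sub-library phosphorylation is a ratio to the mean residue at that position.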

MYO3B, construct: aa1-326, sequence (Q8WXR4 1-326, looked up): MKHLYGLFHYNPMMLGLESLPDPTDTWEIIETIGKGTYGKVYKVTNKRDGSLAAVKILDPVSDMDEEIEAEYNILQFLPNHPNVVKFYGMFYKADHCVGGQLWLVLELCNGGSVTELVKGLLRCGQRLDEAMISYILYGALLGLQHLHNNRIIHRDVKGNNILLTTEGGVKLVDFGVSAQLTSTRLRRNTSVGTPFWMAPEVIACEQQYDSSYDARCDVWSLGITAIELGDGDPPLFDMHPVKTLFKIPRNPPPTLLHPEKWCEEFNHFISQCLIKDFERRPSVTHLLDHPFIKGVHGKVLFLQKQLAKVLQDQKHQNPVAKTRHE
PRKAA1, construct: Full length, sequence (Q13131 whole entry, looked up): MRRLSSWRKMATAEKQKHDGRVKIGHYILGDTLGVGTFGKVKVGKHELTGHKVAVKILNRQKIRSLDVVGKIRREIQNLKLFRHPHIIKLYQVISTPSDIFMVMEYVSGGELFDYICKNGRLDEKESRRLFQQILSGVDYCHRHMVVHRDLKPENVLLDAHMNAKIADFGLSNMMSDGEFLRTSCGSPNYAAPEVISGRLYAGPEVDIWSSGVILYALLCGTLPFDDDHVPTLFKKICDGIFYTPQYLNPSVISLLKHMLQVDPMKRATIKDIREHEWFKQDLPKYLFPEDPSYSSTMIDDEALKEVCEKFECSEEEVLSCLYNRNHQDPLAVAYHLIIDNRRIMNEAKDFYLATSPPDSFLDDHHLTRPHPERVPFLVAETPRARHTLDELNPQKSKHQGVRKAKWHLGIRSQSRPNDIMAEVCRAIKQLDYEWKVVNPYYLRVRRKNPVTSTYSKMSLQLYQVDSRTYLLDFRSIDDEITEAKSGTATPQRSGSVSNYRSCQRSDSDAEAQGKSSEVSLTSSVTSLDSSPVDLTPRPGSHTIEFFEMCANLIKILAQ
SIK1, construct: aa1-303, sequence (P57059 1-303, looked up): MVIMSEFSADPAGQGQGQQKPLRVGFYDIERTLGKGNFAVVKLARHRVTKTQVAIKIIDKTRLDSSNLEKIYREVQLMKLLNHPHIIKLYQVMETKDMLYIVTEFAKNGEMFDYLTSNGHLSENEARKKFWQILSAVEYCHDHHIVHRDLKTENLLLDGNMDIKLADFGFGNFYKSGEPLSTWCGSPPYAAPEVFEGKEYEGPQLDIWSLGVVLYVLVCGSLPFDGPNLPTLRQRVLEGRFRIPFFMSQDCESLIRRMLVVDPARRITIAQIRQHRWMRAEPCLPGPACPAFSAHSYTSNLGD

SIK1, construct: aa1-303 (from UniProt P57059)
relative phosphorylation
Settings | at +1 | at +2 | at +3 | at +4 | at -1 | at -2 | at -3 | at -4 | at -5
A fixed | 0.56 | 1.1 | 0.618 | 0.641 | 0.972 | 1.89 | 0.589 | 0.941 | 1.01
D fixed | 0.593 | 0.666 | 1.84 | 0.416 | 0.724 | 0.326 | 0.282 | 0.786 | 0.672
E fixed | 0.718 | 0.524 | 0.523 | 0.334 | 0.46 | 0.304 | 0.309 | 0.966 | 0.746
F fixed | 0.996 | 0.694 | 1.08 | 0.86 | 0.432 | 1.13 | 0.47 | 0.768 | 1.22
G fixed | 0.493 | 0.841 | 0.595 | 0.697 | 2.75 | 0.851 | 0.382 | 1.01 | 0.737
H fixed | 0.797 | 0.662 | 1.18 | 0.767 | 0.966 | 1.44 | 0.877 | 1.24 | 0.829
I fixed | 1.18 | 1.06 | 0.907 | 2.22 | 0.289 | 0.451 | 0.24 | 0.457 | 0.721
K fixed | 0.839 | 0.992 | 0.716 | 0.722 | 1.76 | 1.23 | 2.52 | 1.61 | 1.31
L fixed | 1.11 | 0.626 | 0.992 | 4.05 | 0.722 | 0.35 | 0.343 | 0.535 | 1.7
M fixed | 1.87 | 0.998 | 0.928 | 1.48 | 0.82 | 0.556 | 0.508 | 0.93 | 1.09
N fixed | 1.2 | 1.09 | 2.97 | 0.688 | 1.43 | 0.809 | 0.587 | 1.01 | 0.894
P fixed | 0.315 | 1.08 | 0.439 | 0.676 | 1.24 | 0.347 | 0.505 | 1.09 | 0.831
Q fixed | 2.08 | 0.958 | 0.965 | 0.557 | 1.4 | 0.784 | 0.675 | 1.01 | 0.958
R fixed | 1.16 | 1.33 | 0.659 | 0.518 | 1.22 | 1.35 | 6.57 | 1.86 | 1.65
V fixed | 1.23 | 1.1 | 0.599 | 1.12 | 0.565 | 0.868 | 0.329 | 0.512 | 0.744
W fixed | 0.868 | 2.13 | 0.916 | 0.695 | 0.516 | 2.72 | 1.25 | 1.24 | 1.05
Y fixed | 0.982 | 1.14 | 1.08 | 0.564 | 0.732 | 1.59 | 0.569 | 1.03 | 0.832
pThr fixed | 0.764 | 0.579 | 0.35 | 0.475 | 0.285 | 0.388 | 0.433 | 0.706 | 0.562
pTyr fixed | 0.75 | 0.358 | 0.419 | 0.526 | 0.812 | 0.469 | 0.515 | 0.699 | 0.731

MAP2K2, construct: aa306-end (from UniProt P36507)
relative phosphorylation
Settings | at +1 | at +2 | at +3 | at +4 | at -1 | at -2 | at -3 | at -4 | at -5
A fixed | 0.617 | 1.06 | 0.962 | 0.933 | 0.978 | 0.833 | 1.06 | 0.961 | 1.08
D fixed | 1.32 | 0.532 | 0.643 | 0.706 | 0.63 | 0.982 | 0.744 | 1.13 | 1.01
E fixed | 0.689 | 0.364 | 0.589 | 0.62 | 0.606 | 0.819 | 0.803 | 1.01 | 0.781
F fixed | 1.49 | 0.907 | 1.05 | 0.995 | 1.19 | 2.06 | 1.51 | 1.05 | 0.965
G fixed | 0.624 | 0.787 | 1.22 | 1.08 | 1.35 | 0.713 | 0.737 | 1.14 | 1.07
H fixed | 0.836 | 3.02 | 1.3 | 1.08 | 1.01 | 2.51 | 0.945 | 1.04 | 0.996
I fixed | 1.55 | 0.963 | 1.02 | 0.968 | 0.735 | 0.626 | 1.18 | 0.808 | 0.73
K fixed | 0.453 | 0.771 | 0.833 | 0.882 | 1.03 | 0.674 | 0.649 | 0.799 | 1.01
L fixed | 1.46 | 0.795 | 0.981 | 0.927 | 1.49 | 0.763 | 1.4 | 0.984 | 0.789
M fixed | 1.89 | 1.13 | 0.865 | 0.862 | 1.32 | 1.09 | 1.58 | 1.05 | 0.943
N fixed | 0.537 | 0.756 | 0.744 | 0.755 | 0.696 | 0.768 | 0.63 | 0.921 | 0.962
P fixed | 0.347 | 0.681 | 0.947 | 1.02 | 0.494 | 0.46 | 0.691 | 0.857 | 1.11
Q fixed | 0.625 | 0.8 | 0.742 | 0.79 | 0.842 | 0.705 | 0.585 | 0.835 | 0.819
R fixed | 0.474 | 0.847 | 0.926 | 0.985 | 1.34 | 0.966 | 0.787 | 0.929 | 1.1
V fixed | 1.03 | 0.875 | 0.933 | 0.74 | 0.874 | 0.562 | 0.885 | 0.789 | 1.14
W fixed | 1.36 | 1.18 | 1.51 | 1.96 | 1.08 | 1.29 | 1.38 | 1.38 | 1.25
Y fixed | 1.7 | 1.54 | 1.73 | 1.69 | 1.34 | 1.18 | 1.44 | 1.31 | 1.25
pThr fixed | 0.823 | 0.505 | 0.611 | 0.607 | 0.404 | 0.431 | 0.575 | 0.741 | 0.914
pTyr fixed | 0.886 | 0.37 | 0.827 | 0.673 | 0.592 | 0.431 | 0.675 | 0.795 | 0.953

PRKAA1, construct: Full length (from UniProt Q13131)
relative phosphorylation
Settings | at +1 | at +2 | at +3 | at +4 | at -1 | at -2 | at -3 | at -4 | at -5
A fixed | 0.927 | 1.41 | 0.812 | 0.574 | 1.05 | 1.27 | 0.845 | 1.21 | 0.908
D fixed | 0.609 | 0.529 | 1.53 | 0.606 | 0.666 | 0.413 | 0.32 | 0.497 | 0.381
E fixed | 0.781 | 0.496 | 0.935 | 0.516 | 0.578 | 0.475 | 0.453 | 0.63 | 0.374
F fixed | 1.63 | 0.899 | 1.1 | 1.25 | 0.643 | 0.718 | 0.516 | 0.682 | 1.2
G fixed | 0.773 | 0.759 | 0.902 | 0.659 | 1.4 | 1.05 | 0.889 | 1.2 | 0.857
H fixed | 1.18 | 1.48 | 1.5 | 0.757 | 1.11 | 1.28 | 1.28 | 1.19 | 0.816
I fixed | 0.75 | 1.38 | 0.705 | 2.17 | 0.379 | 0.944 | 0.402 | 0.659 | 1.41
K fixed | 1 | 0.723 | 1.15 | 0.753 | 1.93 | 1.73 | 2.54 | 2.1 | 1.35
L fixed | 0.813 | 1.23 | 0.803 | 2.67 | 0.63 | 0.541 | 0.45 | 0.643 | 1.63
M fixed | 1.49 | 0.855 | 0.833 | 1.89 | 0.972 | 0.638 | 0.609 | 0.895 | 1.5
N fixed | 0.86 | 1.08 | 1.55 | 0.775 | 1.12 | 1.7 | 0.869 | 0.947 | 0.724
P fixed | 0.231 | 1.31 | 0.39 | 0.767 | 1.32 | 0.783 | 1.04 | 1.19 | 0.944
Q fixed | 1.23 | 0.893 | 0.996 | 0.704 | 1.31 | 0.92 | 0.879 | 0.888 | 0.847
R fixed | 1.24 | 0.649 | 1.09 | 0.691 | 1.66 | 1.81 | 4.12 | 2.17 | 1.71
V fixed | 0.893 | 1.48 | 0.65 | 0.969 | 0.589 | 1.3 | 0.477 | 0.728 | 0.784
W fixed | 1.35 | 0.922 | 1.19 | 0.693 | 0.782 | 0.705 | 0.633 | 0.681 | 0.731
Y fixed | 1.23 | 0.897 | 0.866 | 0.556 | 0.87 | 0.716 | 0.677 | 0.705 | 0.836
pThr fixed | 0.737 | 0.513 | 0.427 | 0.606 | 0.418 | 0.679 | 0.632 | 0.724 | 0.726
pTyr fixed | 0.604 | 0.5 | 0.601 | 0.485 | 0.685 | 0.568 | 0.51 | 0.492 | 0.778

MYO3B, construct: aa1-326 (from UniProt Q8WXR4)
relative phosphorylation
Settings | at +1 | at +2 | at +3 | at +4 | at -1 | at -2 | at -3 | at -4 | at -5
A fixed | 0.835 | 0.824 | 0.907 | 0.917 | 1.11 | 0.997 | 1.06 | 0.977 | 1.15
D fixed | 0.195 | 0.346 | 0.286 | 0.408 | 0.679 | 0.489 | 0.538 | 0.954 | 0.81
E fixed | 0.182 | 0.272 | 0.222 | 0.412 | 0.633 | 0.316 | 0.576 | 0.933 | 0.843
F fixed | 0.583 | 0.641 | 0.831 | 0.682 | 0.908 | 1.44 | 1.07 | 1.05 | 1.01
G fixed | 0.936 | 0.951 | 1.04 | 1.24 | 1.61 | 1.32 | 1.8 | 1.33 | 1.38
H fixed | 0.628 | 1.1 | 1.01 | 1.03 | 1.18 | 1.25 | 1.13 | 1.14 | 1.08
I fixed | 1.1 | 0.515 | 0.595 | 0.683 | 0.38 | 0.578 | 0.728 | 0.783 | 0.787
K fixed | 2.3 | 2.56 | 2.29 | 2.28 | 0.958 | 0.787 | 0.946 | 1.04 | 1.14
L fixed | 1.53 | 0.724 | 0.838 | 0.663 | 0.945 | 0.713 | 0.901 | 0.82 | 0.757
M fixed | 1.57 | 0.756 | 0.71 | 0.714 | 1.33 | 0.857 | 1.11 | 0.939 | 0.947
N fixed | 0.754 | 0.835 | 0.911 | 1.03 | 1.28 | 0.95 | 0.939 | 0.96 | 0.899
P fixed | 0.276 | 0.96 | 1.18 | 1.05 | 0.601 | 0.622 | 0.891 | 0.953 | 1.27
Q fixed | 1.08 | 0.752 | 0.736 | 0.988 | 1.04 | 0.816 | 0.823 | 0.946 | 0.856
R fixed | 2.66 | 3.56 | 3.06 | 2.38 | 1.58 | 1.72 | 1.18 | 1.13 | 1.15
V fixed | 0.809 | 0.552 | 0.671 | 0.702 | 0.495 | 0.597 | 0.582 | 0.769 | 0.879
W fixed | 0.791 | 0.737 | 0.807 | 1 | 0.856 | 1.52 | 1.28 | 1.17 | 0.993
Y fixed | 0.781 | 0.919 | 0.902 | 0.826 | 1.41 | 2.03 | 1.44 | 1.1 | 1.04
pThr fixed | 0.449 | 0.389 | 0.599 | 0.309 | 0.335 | 0.494 | 0.678 | 0.852 | 0.895
pTyr fixed | 0.308 | 0.266 | 0.551 | 0.392 | 1.24 | 0.596 | 0.873 | 0.888 | 1.1

Reference: the supplement of paper PMC9876800
